Earlier results, collected in US11795217B2, “Interleukin-1 inhibition for combination treatment of pancreatic cancer cachexia” (Cedars-Sinai Medical Center, priority 2018, dated 2023).

How the values were obtained:
[1] = system: patients with advanced cancer and cancer-associated symptoms; conditions: in vivo, 7.5 mg/kg
[2] = system: patients with refractory cancers
[3] = system: patients with metastatic colorectal cancer

## bermekimab
[1]
  drug-related toxicities: no definite drug-related toxicities
[2]; 61 patients
  patients with a positive DXA outcome as defined for the responder endpoint: 62 % of evaluable patients
[2]; every 2 weeks, dose escalation study
  minimum effective dose: 3.75 mg/kg
[2]; human, in vivo
  dose limiting toxicity: no dose limiting toxicity
  grade ¾ toxicities: fatigue: 13%
  grade ¾ toxicities: nausea: 13%
  grade ¾ toxicities: proteinuria: 21%
[2]; patients with positive DXA outcome
  average LBM (lean body mass) change: 2.1 ± 2.8 kg
[3]; 309 patients, randomized 2:1, placebo 19%, p=0.0045
  response to treatment (primary outcome): 33%
[3]; human, in vivo
  relative reduction in the number of SAEs: 26%
